{"source": "patent US20010029022A1", "about": "(PHARMACIA AND UPJOHN, published 2001)", "binders": {"B1": {"name": "GST-HPV16 E7 (other)", "chain": "MHGDTPTLHEYMLDLQPETTDLYCYEQLNDSSEEEDEIDGPAGQAEPDRAHYNIVTFCCKCDSTLRLCVQSTHVDIRTLEDLLMGTLGIVCPICSQKP", "notes": "range 1-98; GST fusion from pGEX-4T-3; also called GST-16E7; full length GST-HPV 16 E7; not shown: glutathione-S-transferase (GST) moiety of vector pGEX-4T-3, at the amino-terminus"}, "B2": {"name": "GST-HPV31 E7 (other)", "chain": "MRGETPTLQDYVLDLQPEATDLHCYEQLPDSSDEEDVIDSPAGQAEPDTSNYNIVTFCCQCKSTLRLCVQSTQVDIRILQELLMGSFGIVCPNCSTRL", "notes": "GST fusion from pGEX-4T-3; also called GST-31E7; not shown: glutathione-S-transferase (GST) moiety of vector pGEX-4T-3, at the amino-terminus"}, "B3": {"name": "His-p21C (other)", "chain": "GLPKLYLPTGPRRGRDELGGGRRPGTSPALLQGTAEEDHVDLSLSCTLVPRSGEQAEGSPGGPGDSQGRKRRQTSMTDFYHSKRRLIFSKRKP", "notes": "range 72-164; also called carboxy terminal residues 72-164 of p21; not shown: poly-histidine tag from vector pET15b"}}, "key": {"cyclin A/CDK2 complex": {"target": "cyclin A/CDK2 complex (UniProt P20248 1-432; P24941 1-298)", "sequence (P20248 whole entry, one chain of several)": "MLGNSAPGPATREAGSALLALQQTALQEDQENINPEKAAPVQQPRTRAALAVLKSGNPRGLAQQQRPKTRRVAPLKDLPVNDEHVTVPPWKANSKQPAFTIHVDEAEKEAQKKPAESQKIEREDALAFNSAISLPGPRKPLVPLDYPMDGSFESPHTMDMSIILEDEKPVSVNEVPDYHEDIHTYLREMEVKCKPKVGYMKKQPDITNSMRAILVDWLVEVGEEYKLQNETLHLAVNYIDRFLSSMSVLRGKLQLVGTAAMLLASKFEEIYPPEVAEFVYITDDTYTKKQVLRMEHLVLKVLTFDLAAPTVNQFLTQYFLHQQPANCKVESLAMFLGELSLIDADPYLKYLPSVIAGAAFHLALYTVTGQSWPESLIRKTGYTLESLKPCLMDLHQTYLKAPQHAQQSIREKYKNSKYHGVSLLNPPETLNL", "experiment": "cell-based or functional assay"}, "[1]": {"target": "CDK2 kinase complex (cyclin not given) (UniProt P24941 1-298)", "experiment": "cell-based or functional assay"}, "His-p27N": {"target": "T1, His-p27N (human, UniProt P46527 1-101)", "T1 construct": "range 1-101; also called amino terminal residues 1-101 from p27; not shown: poly-histidine tag from the expression vector", "T1 sequence (P46527 1-101)": "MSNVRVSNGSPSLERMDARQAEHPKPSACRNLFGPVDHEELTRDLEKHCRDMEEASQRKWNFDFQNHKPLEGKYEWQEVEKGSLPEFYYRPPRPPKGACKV", "experiment": "GST pull-down on glutathione-agarose beads, SDS-PAGE, Coomassie blue and Western blot"}, "His-p27C": {"target": "T2, His-p27C (human, UniProt P46527 95-198)", "T2 construct": "range 95-198; also called carboxy terminal residues 95-198 of p27; not shown: poly-histidine tag from the expression vector", "T2 sequence (P46527 95-198)": "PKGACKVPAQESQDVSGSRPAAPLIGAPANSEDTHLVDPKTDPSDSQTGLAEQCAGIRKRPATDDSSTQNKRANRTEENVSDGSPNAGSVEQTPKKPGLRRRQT", "experiment": "GST pull-down on glutathione-agarose beads, SDS-PAGE, Coomassie blue and Western blot"}, "GST-HPV16 E7": {"target": "B1", "experiment": "GST pull-down on glutathione-agarose beads, SDS-PAGE, Coomassie blue and Western blot"}, "GST-HPV31 E7": {"target": "B2", "experiment": "GST pull-down on glutathione-agarose beads, SDS-PAGE, Coomassie blue and Western blot"}}}
{"binder": "B1", "values": [{"measurement": "cyclinA/CDK2 histone H1 kinase activity (PhosphorImager)", "setting": "cyclin A/CDK2 complex", "value": 26, "unit": "fold"}, {"measurement": "CDK2 histone kinase activity, fold activation", "setting": "[1]", "value": 18.2, "unit": "fold"}, {"measurement": "binding result", "setting": "His-p27N", "value": "no binding"}, {"measurement": "binding result", "setting": "His-p27C", "value": "no binding"}]}
{"binder": "B2", "values": [{"measurement": "CDK2 histone kinase activity, fold activation", "setting": "[1]", "value": 12.6, "unit": "fold"}, {"measurement": "binding result", "setting": "His-p27N", "value": "no binding"}, {"measurement": "binding result", "setting": "His-p27C", "value": "no binding"}]}
{"binder": "B3", "values": [{"measurement": "binding result", "setting": "GST-HPV16 E7", "value": "no binding"}, {"measurement": "binding result", "setting": "GST-HPV31 E7", "value": "no binding"}]}
